Laboratory results as given in paper PMC9190010, “Giardia intestinalis thymidine kinase is a high-affinity enzyme crucial for DNA synthesis and an exploitable target for drug discovery” (The Journal of Biological Chemistry, 2022).

Key:
[1] = molecular target: T1, G. intestinalis thymidine kinase (TK) (Giardia duodenalis, UniProt A8BRU1); test: radiometric [[…]'-3H]thymidine phosphorylation, DE81 / Hybond-XL filter assay; format: biochemical
T1 construct: gene GL50803_008364; full length, 392 residues, 42 kDa, monomer (mass photometry); expressed in E. coli BL21(DE3)pLysS from pET-Z as His6-Z fusion, tag removed with TEV protease; two TK1-like domains (1-210 active, 211-392 degenerate)
T1 sequence (A8BRU1 1-392): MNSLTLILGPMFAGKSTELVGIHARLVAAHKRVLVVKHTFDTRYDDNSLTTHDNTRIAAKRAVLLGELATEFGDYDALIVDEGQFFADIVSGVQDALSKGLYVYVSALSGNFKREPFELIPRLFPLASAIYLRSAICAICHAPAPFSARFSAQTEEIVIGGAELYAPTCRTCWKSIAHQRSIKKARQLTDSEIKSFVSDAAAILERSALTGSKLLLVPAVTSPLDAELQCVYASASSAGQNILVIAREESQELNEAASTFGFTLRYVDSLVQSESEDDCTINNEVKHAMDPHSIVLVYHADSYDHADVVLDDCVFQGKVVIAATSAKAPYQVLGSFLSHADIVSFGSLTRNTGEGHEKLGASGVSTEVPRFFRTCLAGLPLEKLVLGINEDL

[2] = molecular target: T1, G. intestinalis thymidine kinase (TK); test: thymidine kinase assay (phosphorylation of the nucleoside); format: biochemical; conditions: 2 mM ATP, 5 mM MgCl2, 0.5 mM DTT, 100 mM potassium acetate, 50 mM Tris-HCl pH 7.5, 37 °C
Text: (§1) thymidine kinase assay (phosphorylation of the nucleoside) on G. intestinalis thymidine kinase (TK)

purified protein [3] = substrate: Nc1ccn([C@@H]2O[C@H](COP(=O)(O)OP(=O)(O)OP(=O)(O)O)[C@@H](O)[C@H]2O)c(=O)n1; test: purified protein; format: biochemical, Giardia duodenalis; conditions: phosphate donor varied, 1 μM thymidine, 10 mM MgCl2, pH 7.5, 37 °C
purified protein [4] = substrate: O=c1ccn([C@@H]2O[C@H](COP(=O)(O)OP(=O)(O)OP(=O)(O)O)[C@@H](O)[C@H]2O)c(=O)[nH]1; test: purified protein; format: biochemical, Giardia duodenalis; conditions: phosphate donor varied, 1 μM thymidine, 10 mM MgCl2, pH 7.5, 37 °C
purified protein [5] = substrate: Nc1nc2c(ncn2[C@@H]2O[C@H](COP(=O)(O)OP(=O)(O)OP(=O)(O)O)[C@@H](O)[C@H]2O)c(=O)[nH]1; test: purified protein; format: biochemical, Giardia duodenalis; conditions: phosphate donor varied, 1 μM thymidine, 10 mM MgCl2, pH 7.5, 37 °C
purified protein [6] = substrate: Nc1ncnc2c1ncn2[C@@H]1O[C@H](COP(=O)(O)OP(=O)(O)OP(=O)(O)O)[C@@H](O)[C@H]1O; test: purified protein; format: biochemical, Giardia duodenalis; conditions: phosphate donor varied, 1 μM thymidine, 10 mM MgCl2, pH 7.5, 37 °C
[7] = substrate: Cc1cn([C@@H]2O[C@H](CO)[C@@H](O)[C@@H]2O)c(=O)[nH]c1=O; test: thymidine kinase assay (phosphorylation of the nucleoside); format: biochemical, Giardia duodenalis; conditions: 2 mM ATP, 5 mM MgCl2, 0.5 mM DTT, 100 mM potassium acetate, 50 mM Tris-HCl pH 7.5, 37 °C
Text: as §1

[8] = substrate: O=c1ccn([C@H]2C[C@H](O)[C@@H](CO)O2)c(=O)[nH]1; test: as above; format: biochemical, Giardia duodenalis; conditions: 2 mM ATP, 5 mM MgCl2, 0.5 mM DTT, 100 mM potassium acetate, 50 mM Tris-HCl pH 7.5, 37 °C
Text: as §1

[9] = substrate: Cc1cn([C@H]2C=C[C@@H](CO)O2)c(=O)[nH]c1=O; test: as above; format: biochemical, Giardia duodenalis; conditions: 2 mM ATP, 5 mM MgCl2, 0.5 mM DTT, 100 mM potassium acetate, 50 mM Tris-HCl pH 7.5, 37 °C
Text: as §1

## Cc1cn([C@H]2C[C@H](O)[C@@H](COP(=O)(O)OP(=O)(O)OP(=O)(O)O)O2)c(=O)[nH]c1=O [dTTP]
[1]
  IC50: 30 ± 3 µM

## Cc1cn([C@H]2C[C@H](N=[N+]=[N-])[C@@H](CO)O2)c(=O)[nH]c1=O [AZT]
[2]
  Km (μM): 0.044 ± 0.002 (12%) μM

B1: G. intestinalis thymidine kinase (TK) (Giardia lamblia ATCC 50803) (protein)
chain: T1 sequence (A8BRU1 1-392)
notes: full length, 392 residues, 42 kDa, monomer (mass photometry); expressed in E. coli BL21(DE3)pLysS from pET-Z as His6-Z fusion, tag removed with TEV protease; two TK1-like domains (1-210 active, 211-392 degenerate)
Purified protein [3]
  Km: 2396 ± 199 µM
  Vmax: 1.7 µmol/min
  kcat: 1.19 s⁻¹
  kcat/Km: 500 M⁻¹ s⁻¹
Purified protein [4]
  Km: 1927 ± 269 µM
  Vmax: 1.66 µmol/min
  kcat: 1.16 s⁻¹
  kcat/Km: 600 M⁻¹ s⁻¹
Purified protein [5]
  Km: 1303 ± 78 µM
  Vmax: 2.41 µmol/min
  kcat: 1.69 s⁻¹
  kcat/Km: 1300 M⁻¹ s⁻¹
Purified protein [6]
  Km: 467 ± 29 µM
  Vmax: 0.93 µmol/min
  kcat: 0.65 s⁻¹
  kcat/Km: 1400 M⁻¹ s⁻¹
[7]
  Km: 425 ± 47 µM
  Vmax: 0.68 µmol/min
  kcat: 0.48 s⁻¹
  kcat/Km: 1100 M⁻¹ s⁻¹
[8]
  Km: 5.3 ± 1.3 µM
  Vmax: 1.02 µmol/min
  kcat: 0.67 s⁻¹
  kcat/Km: 134000 M⁻¹ s⁻¹
[9]
  Km: 39 ± 13 µM
  Vmax: 0.25 µmol/min
  kcat: 0.17 s⁻¹
  kcat/Km: 4500 M⁻¹ s⁻¹
